{
  "source": "patent US20070203061",
  "about": "“Adiponectin expression-inducing agents and uses thereof” (TOUDAI TLO, LTD, published 2007)",
  "target": "FLAG-KLF9 (UniProt O35739 SEQ:1-244)",
  "sequence (O35739 other isoform, or with tags, fused parts or gaps)": "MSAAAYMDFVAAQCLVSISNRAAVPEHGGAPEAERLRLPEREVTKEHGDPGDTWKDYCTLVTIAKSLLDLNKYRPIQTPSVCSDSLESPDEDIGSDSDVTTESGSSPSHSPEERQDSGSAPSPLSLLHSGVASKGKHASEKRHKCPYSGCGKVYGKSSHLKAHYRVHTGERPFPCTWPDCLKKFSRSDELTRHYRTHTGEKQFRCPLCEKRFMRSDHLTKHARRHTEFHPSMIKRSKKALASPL",
  "experiment": "EMSA; purified FLAG-KLF9 with 32-bp fragment, similar to adipocyte nuclear extract",
  "conditions": "tags: FLAG; label: 32P",
  "experimental": "[…] were prepared from 293T cells, 3T3L1 adipocytes, or white adipose tissue according to a reported method (Almoguera, C. et al., J. Biol. Chem. 277, 43866-43872 (2002)). Double-stranded oligonucleotides used for the electrophoretic mobility shift assay were prepared by annealing both strands. Labeled probes (3,000 to 10,000 cpm) and the nuclear extracts were mixed in a reaction solution (20 μL: 10 mM Tris-HCl (pH7.6), 50 mM KCl, 0.05 mM EDTA, 2.5 mM MgCl₂, 8.5% glycerol, 1 mM dithiothreitol, 0.5 μg/mL of poly(dI-dC), 0.1% Triton X, and 1 mg/mL of skim milk), and incubated for 30 minutes on ice. The DNA-protein complexes were fractionated on a 4.6% polyacrylamide gel at 140 V for 1 hour at 4° C. The Gel was dried and exposed using a BAS2000 filter with BAStation software (Fuji Photo Film).",
  "data": [
    {"binder": "adiponectin promoter -188/-157 32-bp element (dsDNA) DNA 1: GAAGCCCAAGCTGGGTTGTACCAGGTTCCCTA DNA 2: TAGGGAACCTGGTACAACCCAGCTTGGGCTTC", "values": [
      {"measurement": "binding result", "result": "binds"}
    ]}
  ]
}
